The source of these data is US20100267638A1, “EXOSITE-DIRECTED THROMBIN INHIBITORS” (CLEVELAND STATE UNIVERSITY, priority 2003, published 2010).

No end group written: not given here. *: point of attachment. SO3 = O=S(=O)(O)*

The target of one test is T1, prothrombinase (Homo sapiens, UniProt P00734).
T1 construct: purchased Haematologic Technologies Inc. (Essex Junction, Vt.)
Kind of test: Assay measuring thrombin formation (prothrombinase inhibition by peptides, DAPA fluorescence). It is filed as biochemical. On the procedure:
Assay measuring thrombin formation. The formation of thrombin was analyzed using the fluorescent thrombin inhibitor DAPA as described using a Perkin Elmer LS-50B Luminescence Spectrometer (Perkin-Elmer LLC, Norwalk Conn.) with λex=280 nm, λem=550 nm and a 500 nm long pass filter in the emission beam (Schott KV-500). […] In all cases peptides were preincubated with factor tor Va prior to the assay as described in the legend to the figures. The final concentration of factor tor Va in the mixture was 4 nM with factor Xa at 10 nM, prothrombin at 350 nM, DAPA at 700 nM, in the presence of PCPS vesicles (10 μM). The initial rate of thrombin formation (nM IIa·min^−1) was calculated as described during the initial 5-10 sec of the reaction. To verify if the peptides have any effect on the active-site of thrombin, control experiments were performed as follows: a given peptide (at 100 μM) was incubated in the assay buffer containing DAPA (700 nM); the base line was monitored for 30 sec; thrombin (350 nM) was then added to the mixture and the fluorescent intensity resulting from the complexation of DAPA with the active site of thrombin was monitored for 60 sec. The slope of the reaction measuring thrombin formation in the presence of a given peptide during the first 5 sec was calculated and compared to the slope of a reaction obtained in the absence of peptide. It is noteworthy that under the conditions employed the thrombin-DAPA interaction occurred fast and the calculated slope of the reaction was sensitive to all parameters used. […] All experiments were performed in triplicates or as indicated. The concentration of each peptide given in the figures and figure legends is their final concentration in the assay. […] In some cases the data were also analyzed and plotted using DeltaGraph (DeltaPoint, Monterey, Calif.).
Specifically, peptides were incubated with factor tor Va as described herein at a fixed concentration (100 μM). The percent of factor tor Va cofactor activity was calculated by comparing the activity of prothrombinase in the presence of a given peptide to the activity of prothrombinase determined in a control reaction in the absence of peptide and in the presence of factor Xa. […] The control peptide represents a pentadecapeptide from the middle portion of factor tor Va heavy chain (P15H) (SEQ ID NO. 22). […] All other peptides from region 680-709 had no significant effect on prothrombinase activity.
HC3 represents amino acid sequence 690-699 of factor tor Va heavy chain; HC4 contains the sequence 695-704 of human factor tor Va heavy chain; P15H represents amino acid sequence 337-351 from the middle portion of human factor tor Va heavy chain. […] The concentration of each peptide given on the x axis represents its final concentration in the prothrombinase mixture. […] Thus, both peptides show similar inhibitory potential.

Test [1] addresses T2, thrombin (Homo sapiens, UniProt P00734). The experiment in a line: Inhibition of activation of factor VIII by thrombin (SDS-PAGE). It is filed as biochemical. Further details: Factor Xa cleaves prothrombin to form thrombin. Conditions: FIG. 9A. From the text:
Specifically, FIG. 9A illustrates the inhibition of activation of factor VIII by thrombin, the inhibition resulting from the double sulfonated peptide DYDYQ (1, 2) (SEQ ID NO. 9) binding to thrombin. FIG. 9B illustrates the inhibition of activation of factor V by thrombin, the inhibition resulting from the double sulfonated peptide DYDYQ (1, 2) (SEQ ID NO. 9) binding to thrombin. FIGS. 9A and 9B result from analysis by SDS-PAGE as previously described with regard to FIG. 4(A and B). […] The various fragments of each factor are noted on the right hand side of each figure.

Test [2] deals with T2, thrombin. Kind of test: Activation of plasma factor V by thrombin preincubated with peptide (SDS-PAGE, immunoblotting). Type of test: biochemical. Further details: Factor Xa cleaves prothrombin to form thrombin; purchased Haematologic Technologies Inc. (Essex Junction, Vt.). Conditions: FIG. 9B. On the procedure: Gel Electrophoresis and western blotting. Sodium dodecyl sulfate polyacrylamide gel electrophoresis (SDS-PAGE) analyses were performed using 4-12% gradient gels according to the method of Laemmli. In several experiments, proteins were transferred to polyvinylidene difluoride (PVDF) membranes according to the method described by Towbin et al. After transfer to nitrocellulose, factor V heavy and light chain(s) were detected using the appropriate monoclonal and polyclonal antibodies. Immunoreactive fragments were visualized with chemiluminescence.
Factor V (250 nM) was incubated with thrombin (1 nM). And FIG. 4B illustrates thrombin (1 nM) was preincubated with 100 μM peptide DYDYQ and the mixture was added to factor V (250 nM). […] Fragments were identified following staining with monoclonal antibody αHFV#17 that recognizes an epitope between amino acid residues 307-506 of factor V and chemiluminescence as described. Lane 1 in both panels depicts aliquots of the mixture withdrawn from the reaction before the addition of thrombin or thrombin/peptide mixture while lanes 2-7 show aliquots of the reaction mixture withdrawn at 30 sec, 1 min, 3 min, 5 min, 10 min, 15 min following the addition of thrombin alone or of thrombin/peptide mixture. The time of incubation is shown at the bottom of the figure. Position of the molecular weight markers is indicated at left.
(In general: A western blot detects proteins with antibodies after separation by electrophoresis.)

The target of the next test is intrinsic tenase (Homo sapiens, UniProt P00451+P00740). Kind of test: Inhibition of intrinsic tenase. Type of test: biochemical. Conditions: FIG. 11A. From the text:
FIG. 11A illustrates inhibition of intrinsic tenase by the double sulfonated peptide DYDYQ (1, 2) (SEQ ID NO. 9). […] As is shown in FIG. 11A, as the concentration of DYDYQ (1, 2) is increased, the reduction in activity is dramatic.
FIG. 11B and its insert panel illustrate the effect of increasing concentration of the peptide DYDYQ (1, 2) (SEQ ID NO. 9) upon the reaction kinetics of intrinsic tenase. Specifically, this figure illustrates the kinetics of inhibition of intrinsic tenase in the presence of the double sulfonated peptide DYDYQ (1, 2). In FIG. 11B, the data are plotted as Vo (initial velocity in arbitrary units) as a function of increasing factor X concentration in the presence of increasing concentration of DYDYQ (1, 2). The concentrations of DYDYDQ (1, 2), in addition with factor VIIIa, are 10 nM (filled triangles), 25 nM (filled diamonds), and 50 nM (filled circles). Control curves of factors VIIIa and IXa (filled squares) and factor IXa (inverted triangles) are also noted. The insert panel of FIG. 11B is presented for greater clarity and details the region of factor X concentration up to 300 nM, and without the curve of 50 nM of DYDYQ (1, 2).

Test [3] can be described thus: Clotting time as a function of peptide concentration (FIG. 12). Conditions: peptide 500 nM. From the text: FIG. 12 is a graph illustrating clotting time as a function of concentration of various peptides of interest as follows: DYDYQ (SEQ ID NO. 11) (filled squares); DYDYQ (1, 2) (or as designated in shorthand form, D5Q1,2) (SEQ ID NO. 9) (filled triangles); DYDYQ-1 (SEQ ID NO. 7) (filled inverted triangles); and DYDYQ-2 (SEQ ID NO. 8) (filled diamonds).

intrinsic tenase, sequence (P00740 227-461 limits assumed): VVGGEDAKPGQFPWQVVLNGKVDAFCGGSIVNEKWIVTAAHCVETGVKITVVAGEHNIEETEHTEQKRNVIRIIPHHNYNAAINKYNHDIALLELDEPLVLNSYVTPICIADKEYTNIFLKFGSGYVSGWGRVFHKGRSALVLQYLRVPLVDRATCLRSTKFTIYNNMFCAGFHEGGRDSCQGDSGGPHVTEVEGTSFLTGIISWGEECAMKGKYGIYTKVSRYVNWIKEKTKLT
intrinsic tenase, sequence (P00451 1709-2351 limits assumed): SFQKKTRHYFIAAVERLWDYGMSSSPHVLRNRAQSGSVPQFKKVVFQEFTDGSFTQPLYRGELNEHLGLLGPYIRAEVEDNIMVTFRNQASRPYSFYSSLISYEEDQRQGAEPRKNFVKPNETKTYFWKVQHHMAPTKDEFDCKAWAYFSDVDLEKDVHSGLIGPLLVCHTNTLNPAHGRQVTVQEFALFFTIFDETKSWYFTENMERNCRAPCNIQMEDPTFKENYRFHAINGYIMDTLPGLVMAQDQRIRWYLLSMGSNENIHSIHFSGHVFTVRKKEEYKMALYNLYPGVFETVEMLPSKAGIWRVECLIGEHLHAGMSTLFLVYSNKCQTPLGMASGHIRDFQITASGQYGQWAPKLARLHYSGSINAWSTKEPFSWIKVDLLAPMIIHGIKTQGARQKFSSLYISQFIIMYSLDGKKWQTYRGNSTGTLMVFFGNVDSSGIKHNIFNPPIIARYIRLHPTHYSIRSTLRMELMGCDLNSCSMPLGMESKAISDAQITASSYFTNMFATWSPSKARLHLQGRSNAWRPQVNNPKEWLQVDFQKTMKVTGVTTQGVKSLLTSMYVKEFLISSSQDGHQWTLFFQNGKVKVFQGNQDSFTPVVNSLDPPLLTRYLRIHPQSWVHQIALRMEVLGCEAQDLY

Turning to “DY(—SO3)DY(−SO3)Q (DY(SO3)DY(SO3)Q) [DYDYQ-1,2, double sulfonated peptide DYDYQ]”, the “rank of inhibitory effect on prothrombinase among peptides” value with prothrombinase (FIG. 10A) is “greatest inhibitory effect”. Further, the “inhibition of prothrombinase activity with increasing peptide” value with prothrombinase (FIG. 10A, up to 8000 nM) is listed as “significant inhibitory effects”. Besides, in the test with prothrombinase (kinetic analyses, increasing prothrombin and peptide), the “type of inhibition of prothrombinase with respect to prothrombin” value is recorded as “competitive inhibition mechanism”. Besides, in the test with thrombin [1], the “inhibition of activation of factor VIII by thrombin” value is “potent inhibitor”. In addition, the “inhibition of activation of factor V by thrombin” value with thrombin [2] is listed as “potent inhibitor”. In the test with intrinsic tenase, the “inhibition of intrinsic tenase” value is on record as “dramatic reduction”. In addition, in test [3], the clotting time entry was “relatively long clotting times” and the “rank of clotting time among peptides” value is reported as “longest clotting time”.
